# Reference: PMC8748612, “Maximizing response to intratumoral immunotherapy in mice by tuning local retention” (Nature Communications, 2022)
# Biological target: Collagen I (Gibco), coated on 96-well plates (UniProt P02454 152-1207; P02466 86-1125)
# Experiment: ELISA
# Settings: not given
# Sequence of Collagen I (Gibco), coated on 96-well plates (P02454 152-1207, chain 1 of 2): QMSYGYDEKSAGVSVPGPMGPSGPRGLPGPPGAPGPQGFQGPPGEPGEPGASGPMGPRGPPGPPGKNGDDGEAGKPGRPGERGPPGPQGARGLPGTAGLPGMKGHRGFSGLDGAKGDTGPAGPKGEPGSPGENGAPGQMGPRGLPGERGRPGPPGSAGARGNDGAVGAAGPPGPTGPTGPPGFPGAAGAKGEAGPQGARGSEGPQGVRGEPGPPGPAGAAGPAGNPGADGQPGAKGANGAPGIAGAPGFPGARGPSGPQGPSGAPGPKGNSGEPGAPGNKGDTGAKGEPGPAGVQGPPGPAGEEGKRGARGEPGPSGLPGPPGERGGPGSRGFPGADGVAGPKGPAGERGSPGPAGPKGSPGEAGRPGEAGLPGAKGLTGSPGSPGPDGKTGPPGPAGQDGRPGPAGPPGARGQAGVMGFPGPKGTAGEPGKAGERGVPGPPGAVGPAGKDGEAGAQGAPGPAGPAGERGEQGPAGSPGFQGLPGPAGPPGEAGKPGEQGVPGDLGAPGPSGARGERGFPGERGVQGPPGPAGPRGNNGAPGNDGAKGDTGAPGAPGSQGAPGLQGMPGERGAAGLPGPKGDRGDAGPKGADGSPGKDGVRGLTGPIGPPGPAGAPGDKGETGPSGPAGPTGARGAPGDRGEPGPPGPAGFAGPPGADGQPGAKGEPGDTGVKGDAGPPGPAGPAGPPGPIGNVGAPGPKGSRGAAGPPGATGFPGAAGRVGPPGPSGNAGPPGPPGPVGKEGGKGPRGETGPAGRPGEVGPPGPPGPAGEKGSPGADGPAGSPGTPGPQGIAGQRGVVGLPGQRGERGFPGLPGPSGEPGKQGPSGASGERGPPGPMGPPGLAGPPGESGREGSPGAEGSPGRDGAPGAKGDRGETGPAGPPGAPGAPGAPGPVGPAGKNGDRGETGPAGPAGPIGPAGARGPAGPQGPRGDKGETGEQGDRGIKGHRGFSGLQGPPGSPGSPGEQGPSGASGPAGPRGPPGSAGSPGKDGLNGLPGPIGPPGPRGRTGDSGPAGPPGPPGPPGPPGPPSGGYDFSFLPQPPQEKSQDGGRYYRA
# Sequence of Collagen I (Gibco), coated on 96-well plates (P02466 86-1125, chain 2 of 2): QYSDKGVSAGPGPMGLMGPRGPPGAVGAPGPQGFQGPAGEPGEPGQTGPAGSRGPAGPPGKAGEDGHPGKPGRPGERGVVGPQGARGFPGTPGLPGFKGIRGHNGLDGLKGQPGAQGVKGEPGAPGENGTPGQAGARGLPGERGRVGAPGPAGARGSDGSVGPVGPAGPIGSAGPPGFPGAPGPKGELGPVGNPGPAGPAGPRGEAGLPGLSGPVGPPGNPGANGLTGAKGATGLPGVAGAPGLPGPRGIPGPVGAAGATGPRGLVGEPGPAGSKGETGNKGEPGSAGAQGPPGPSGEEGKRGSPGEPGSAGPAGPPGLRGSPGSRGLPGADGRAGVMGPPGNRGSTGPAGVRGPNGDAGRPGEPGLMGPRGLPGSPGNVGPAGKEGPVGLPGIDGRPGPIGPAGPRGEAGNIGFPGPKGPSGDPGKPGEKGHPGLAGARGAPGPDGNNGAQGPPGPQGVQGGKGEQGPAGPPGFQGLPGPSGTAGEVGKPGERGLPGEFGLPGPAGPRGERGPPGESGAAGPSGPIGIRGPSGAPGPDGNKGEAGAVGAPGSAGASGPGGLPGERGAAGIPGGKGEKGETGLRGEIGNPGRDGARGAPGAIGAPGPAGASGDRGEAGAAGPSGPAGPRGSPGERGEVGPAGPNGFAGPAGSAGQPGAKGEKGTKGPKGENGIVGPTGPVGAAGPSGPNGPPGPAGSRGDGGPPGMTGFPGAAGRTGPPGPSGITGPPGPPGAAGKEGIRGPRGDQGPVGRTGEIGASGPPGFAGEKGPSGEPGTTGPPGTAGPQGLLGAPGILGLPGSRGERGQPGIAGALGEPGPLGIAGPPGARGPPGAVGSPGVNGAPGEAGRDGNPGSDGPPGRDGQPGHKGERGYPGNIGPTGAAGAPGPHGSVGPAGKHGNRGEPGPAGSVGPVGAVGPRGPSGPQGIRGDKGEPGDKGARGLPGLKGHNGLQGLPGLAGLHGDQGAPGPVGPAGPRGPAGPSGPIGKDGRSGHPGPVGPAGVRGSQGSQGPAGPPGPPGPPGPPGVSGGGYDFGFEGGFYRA
row,Kd,Molecule
1,> 1000 nM,LAIRx-his (domain or fragment) QEGSLPDITIFPNSSLMISQGTFVTVVCSYSDKHDLYNMVALAKDGSTFMEKSTEPYKTEDEFEIGPVNETITGHYSCIYSKGITWSERSKTLELKVIKENVIQTPAPGPTSDTSWLKTYSIY
2,102 nM,LAIR-his (domain or fragment) QEGSLPDITIFPNSSLMISQGTFVTVVCSYSDKHDLYNMVRLEKDGSTFMEKSTEPYKTEDEFEIGPVNETITGHYSCIYSKGITWSERSKTLELKVIKENVIQTPAPGPTSDTSWLKTYSIY
3,> 1000 nM,LAIRx-LAIRx-MSA^H464Q-his (other) QEGSLPDITIFPNSSLMISQGTFVTVVCSYSDKHDLYNMVALAKDGSTFMEKSTEPYKTEDEFEIGPVNETITGHYSCIYSKGITWSERSKTLELKVIKENVIQTPAPGPTSDTSWLKTYSIYQEGSLPDITIFPNSSLMISQGTFVTVVCSYSDKHDLYNMVALAKDGSTFMEKSTEPYKTEDEFEIGPVNETITGHYSCIYSKGITWSERSKTLELKVIKENVIQTPAPGPTSDTSWLKTYSIYEAHKSEIAHRYNDLGEQHFKGLVLIAFSQYLQKCSYDEHAKLVQEVTDFAKTCVADESAANCDKSLHTLFGDKLCAIPNLRENYGELADCCTKQEPERNECFLQHKDDNPSLPPFERPEAEAMCTSFKENPTTFMGHYLHEVARRHPYFYAPELLYYAEQYNEILTQCCAEADKESCLTPKLDGVKEKALVSSVRQRMKCSSMQKFGERAFKAWAVARLSQTFPNADFAEITKLATDLTKVNKECCHGDLLECADDRAELAKYMCENQATISSKLQTCCDKPLLKKAHCLSEVEHDTMPADLPAIAADFVEDQEVCKNYAEAKDVFLGTFLYEYSRRHPDYSVSLLLRLAKKYEATLEKCCAEANPPACYGTVLAEFQPLVEEPKNLVKTNCDLYEKLGEYGFQNAILVRYTQKAPQVSTPTLVEAARNLGRVGTKCCTLPEDQRLPCVEDYLSAILNRVCLLQEKTPVSEHVTKCCSGSLVERRPCFSALTVDETYVPKEFKAETFTFHSDICTLPEKEKQIKKQTALAELVKHKPKATAEQLKTVMDDFAQFLDTCCKAADKDTCFSTEGPNLVTRCKDALA

# Biological target: T1, collagen type I (UniProt P02454 152-1207; P02466 86-1125)
# T1 construct: collagen type I, alpha-1 chain; collagen type I, alpha-2 chain; two alpha-1 chains and one alpha-2 chain, and rat as the source, are surmised; also called Collagen I (Gibco); native collagen; source: bought: Gibco
# Experiment: ELISA; Collagen I (Gibco) coated 96-well plates; LAIR-MSA fusion proteins in PBSTA for 4 h at room temperature; detected with HRP-conjugated anti-6xHis; mean, n = 2
# Settings: not given
# T1 sequence (P02454 152-1207, chain 1 of 2): as the sequence (P02454 152-1207, chain 1 of 2) above
# T1 sequence (P02466 86-1125, chain 2 of 2): as the sequence (P02466 86-1125, chain 2 of 2) above
row,Kd,Molecule
1,17 nM,LAIR-MSA (from UniProt P07724 25-608)

# Same assay, conditions: both partners purified
row,Kd,Molecule
1,130 nM,LAIR30.w.B F49S-MSA (other) QEGSLPDITIFPNSSLMISQGTFVTVVCSYSDKHDLYNMVRLEKDGSTSMEKSTEPYKTEDEFEIGPVNETITGHYSCIYSKGITWSERSKTLELKVIKENVIQTPAPGPTSDTSWLKTYSIYEAHKSEIAHRYNDLGEQHFKGLVLIAFSQYLQKCSYDEHAKLVQEVTDFAKTCVADESAANCDKSLHTLFGDKLCAIPNLRENYGELADCCTKQEPERNECFLQHKDDNPSLPPFERPEAEAMCTSFKENPTTFMGHYLHEVARRHPYFYAPELLYYAEQYNEILTQCCAEADKESCLTPKLDGVKEKALVSSVRQRMKCSSMQKFGERAFKAWAVARLSQTFPNADFAEITKLATDLTKVNKECCHGDLLECADDRAELAKYMCENQATISSKLQTCCDKPLLKKAHCLSEVEHDTMPADLPAIAADFVEDQEVCKNYAEAKDVFLGTFLYEYSRRHPDYSVSLLLRLAKKYEATLEKCCAEANPPACYGTVLAEFQPLVEEPKNLVKTNCDLYEKLGEYGFQNAILVRYTQKAPQVSTPTLVEAARNLGRVGTKCCTLPEDQRLPCVEDYLSAILNRVCLLHEKTPVSEHVTKCCSGSLVERRPCFSALTVDETYVPKEFKAETFTFHSDICTLPEKEKQIKKQTALAELVKHKPKATAEQLKTVMDDFAQFLDTCCKAADKDTCFSTEGPNLVTRCKDALA
2,170 nM,LAIR30.w.C E51G-MSA (other) QEGSLPDITIFPNSSLMISQGTFVTVVCSYSDKHDLYNMVRLEKDGSTFMGKSTEPYKTEDEFEIGPVNETITGHYSCIYSKGITWSERSKTLELKVIKENVIQTPAPGPTSDTSWLKTYSIYEAHKSEIAHRYNDLGEQHFKGLVLIAFSQYLQKCSYDEHAKLVQEVTDFAKTCVADESAANCDKSLHTLFGDKLCAIPNLRENYGELADCCTKQEPERNECFLQHKDDNPSLPPFERPEAEAMCTSFKENPTTFMGHYLHEVARRHPYFYAPELLYYAEQYNEILTQCCAEADKESCLTPKLDGVKEKALVSSVRQRMKCSSMQKFGERAFKAWAVARLSQTFPNADFAEITKLATDLTKVNKECCHGDLLECADDRAELAKYMCENQATISSKLQTCCDKPLLKKAHCLSEVEHDTMPADLPAIAADFVEDQEVCKNYAEAKDVFLGTFLYEYSRRHPDYSVSLLLRLAKKYEATLEKCCAEANPPACYGTVLAEFQPLVEEPKNLVKTNCDLYEKLGEYGFQNAILVRYTQKAPQVSTPTLVEAARNLGRVGTKCCTLPEDQRLPCVEDYLSAILNRVCLLHEKTPVSEHVTKCCSGSLVERRPCFSALTVDETYVPKEFKAETFTFHSDICTLPEKEKQIKKQTALAELVKHKPKATAEQLKTVMDDFAQFLDTCCKAADKDTCFSTEGPNLVTRCKDALA
3,96 nM,LAIR30.w.E F63L-MSA (other) QEGSLPDITIFPNSSLMISQGTFVTVVCSYSDKHDLYNMVRLEKDGSTFMEKSTEPYKTEDELEIGPVNETITGHYSCIYSKGITWSERSKTLELKVIKENVIQTPAPGPTSDTSWLKTYSIYEAHKSEIAHRYNDLGEQHFKGLVLIAFSQYLQKCSYDEHAKLVQEVTDFAKTCVADESAANCDKSLHTLFGDKLCAIPNLRENYGELADCCTKQEPERNECFLQHKDDNPSLPPFERPEAEAMCTSFKENPTTFMGHYLHEVARRHPYFYAPELLYYAEQYNEILTQCCAEADKESCLTPKLDGVKEKALVSSVRQRMKCSSMQKFGERAFKAWAVARLSQTFPNADFAEITKLATDLTKVNKECCHGDLLECADDRAELAKYMCENQATISSKLQTCCDKPLLKKAHCLSEVEHDTMPADLPAIAADFVEDQEVCKNYAEAKDVFLGTFLYEYSRRHPDYSVSLLLRLAKKYEATLEKCCAEANPPACYGTVLAEFQPLVEEPKNLVKTNCDLYEKLGEYGFQNAILVRYTQKAPQVSTPTLVEAARNLGRVGTKCCTLPEDQRLPCVEDYLSAILNRVCLLHEKTPVSEHVTKCCSGSLVERRPCFSALTVDETYVPKEFKAETFTFHSDICTLPEKEKQIKKQTALAELVKHKPKATAEQLKTVMDDFAQFLDTCCKAADKDTCFSTEGPNLVTRCKDALA

# The remaining lines, values behind:
row,Molecule,Kd
1,"LAIR30.w.A V27A,D45G-MSA (other) QEGSLPDITIFPNSSLMISQGTFVTVACSYSDKHDLYNMVRLEKGGSTFMEKSTEPYKTEDEFEIGPVNETITGHYSCIYSKGITWSERSKTLELKVIKENVIQTPAPGPTSDTSWLKTYSIYEAHKSEIAHRYNDLGEQHFKGLVLIAFSQYLQKCSYDEHAKLVQEVTDFAKTCVADESAANCDKSLHTLFGDKLCAIPNLRENYGELADCCTKQEPERNECFLQHKDDNPSLPPFERPEAEAMCTSFKENPTTFMGHYLHEVARRHPYFYAPELLYYAEQYNEILTQCCAEADKESCLTPKLDGVKEKALVSSVRQRMKCSSMQKFGERAFKAWAVARLSQTFPNADFAEITKLATDLTKVNKECCHGDLLECADDRAELAKYMCENQATISSKLQTCCDKPLLKKAHCLSEVEHDTMPADLPAIAADFVEDQEVCKNYAEAKDVFLGTFLYEYSRRHPDYSVSLLLRLAKKYEATLEKCCAEANPPACYGTVLAEFQPLVEEPKNLVKTNCDLYEKLGEYGFQNAILVRYTQKAPQVSTPTLVEAARNLGRVGTKCCTLPEDQRLPCVEDYLSAILNRVCLLHEKTPVSEHVTKCCSGSLVERRPCFSALTVDETYVPKEFKAETFTFHSDICTLPEKEKQIKKQTALAELVKHKPKATAEQLKTVMDDFAQFLDTCCKAADKDTCFSTEGPNLVTRCKDALA",120 nM
2,LAIR30.d.D E43A-MSA (other) QEGSLPDITIFPNSSLMISQGTFVTVVCSYSDKHDLYNMVRLAKDGSTFMEKSTEPYKTEDEFEIGPVNETITGHYSCIYSKGITWSERSKTLELKVIKENVIQTPAPGPTSDTSWLKTYSIYEAHKSEIAHRYNDLGEQHFKGLVLIAFSQYLQKCSYDEHAKLVQEVTDFAKTCVADESAANCDKSLHTLFGDKLCAIPNLRENYGELADCCTKQEPERNECFLQHKDDNPSLPPFERPEAEAMCTSFKENPTTFMGHYLHEVARRHPYFYAPELLYYAEQYNEILTQCCAEADKESCLTPKLDGVKEKALVSSVRQRMKCSSMQKFGERAFKAWAVARLSQTFPNADFAEITKLATDLTKVNKECCHGDLLECADDRAELAKYMCENQATISSKLQTCCDKPLLKKAHCLSEVEHDTMPADLPAIAADFVEDQEVCKNYAEAKDVFLGTFLYEYSRRHPDYSVSLLLRLAKKYEATLEKCCAEANPPACYGTVLAEFQPLVEEPKNLVKTNCDLYEKLGEYGFQNAILVRYTQKAPQVSTPTLVEAARNLGRVGTKCCTLPEDQRLPCVEDYLSAILNRVCLLHEKTPVSEHVTKCCSGSLVERRPCFSALTVDETYVPKEFKAETFTFHSDICTLPEKEKQIKKQTALAELVKHKPKATAEQLKTVMDDFAQFLDTCCKAADKDTCFSTEGPNLVTRCKDALA,220 nM
3,LAIR30.w.F S90A-MSA (other) QEGSLPDITIFPNSSLMISQGTFVTVVCSYSDKHDLYNMVRLEKDGSTFMEKSTEPYKTEDEFEIGPVNETITGHYSCIYSKGITWSERAKTLELKVIKENVIQTPAPGPTSDTSWLKTYSIYEAHKSEIAHRYNDLGEQHFKGLVLIAFSQYLQKCSYDEHAKLVQEVTDFAKTCVADESAANCDKSLHTLFGDKLCAIPNLRENYGELADCCTKQEPERNECFLQHKDDNPSLPPFERPEAEAMCTSFKENPTTFMGHYLHEVARRHPYFYAPELLYYAEQYNEILTQCCAEADKESCLTPKLDGVKEKALVSSVRQRMKCSSMQKFGERAFKAWAVARLSQTFPNADFAEITKLATDLTKVNKECCHGDLLECADDRAELAKYMCENQATISSKLQTCCDKPLLKKAHCLSEVEHDTMPADLPAIAADFVEDQEVCKNYAEAKDVFLGTFLYEYSRRHPDYSVSLLLRLAKKYEATLEKCCAEANPPACYGTVLAEFQPLVEEPKNLVKTNCDLYEKLGEYGFQNAILVRYTQKAPQVSTPTLVEAARNLGRVGTKCCTLPEDQRLPCVEDYLSAILNRVCLLHEKTPVSEHVTKCCSGSLVERRPCFSALTVDETYVPKEFKAETFTFHSDICTLPEKEKQIKKQTALAELVKHKPKATAEQLKTVMDDFAQFLDTCCKAADKDTCFSTEGPNLVTRCKDALA,63 nM
